System: MS2 coat protein
Assay: apparent KD of MS2 coat protein; designed switch direction (-1 OFF switch, 1 ON switch): 1; higher = weaker reporter binding
Outline: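 The buffer was Tris-HCl pH 7.5 with KCl, MgCl2, BSA, DTT, tRNA and Tween-20. In it, SNAP-549-labelled MS2 coat protein was titrated in doubling steps from 0.7 or 1.5 nM to 3 µM over chip-bound RNA switches transcribed by stalled E. coli RNA polymerase on Illumina chips. Apparent KD is the per-design median over clusters of curve fits to normalised fluorescence.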

[1] = input ligand: microRNA oligo, concentration not stated
[2] = Eterna round: R95, input ligand: FMN 200 uM
[3] = Eterna round: R95, input ligand: microRNA oligo, concentration not stated
[4] = Eterna round: R95, input ligand: none

| Sequence | apparent KD of MS2 coat protein (input ligand: FMN 200 uM) | apparent KD of MS2 coat protein [1] | apparent KD of MS2 coat protein (input ligand: none) | apparent KD of MS2 coat protein [2] | apparent KD of MS2 coat protein [3] | apparent KD of MS2 coat protein [4] |
| --- | --- | --- | --- | --- | --- | --- |
| GGUAUGGACACAGGAUAUGCUUACGAAACGUAAGCAGAAGGGUGAACAUGAGGAUCACCCAUGUACGUGCCAGGGCGUGAGCCC [JL SSNG1 1.77] (Eterna round: R96, puzzle: Same State NG 1) | 1420 nM | 29.8 nM | 920 nM | – | – | – |
| GGUAUUGACACAGGAUAUGCUUACGAAACGUAAGCAGAAGGGUGAACAUGAGGAUCACCCAUGUAUGUACCAGGGCGUGAGCCC [JL SSNG1 1.74] (Eterna round: R96, puzzle: Same State NG 1) | 169 nM | 875 nM | 1880 nM | – | – | – |
| GGUCCAGCCUGAGCUGGACAAAAGCAUGUACAUGAGGAUCACCCAUGUUCAUGUACAAGCUUUUUGCUCGUCUUAAG [salish99_208a_r3_037] (puzzle: Sensor for hsa-mir-208a) | – | – | – | 719 nM | 18 nM | 740 nM |
| GGUCCAGCCUGAGCUGGACAAAAGCAUGUACAUGAGGAUCACCCAUGUUCAUGUACAAGCUUUUUGCUCGUCUUACU [salish99_208a_r3_085] (puzzle: Sensor for hsa-mir-208a) | – | – | – | 681 nM | 15 nM | 553 nM |
| GGUCCAGCCUGAGCUGGACCGAAGCAUGUACAUGAGGAUCACCCAUGUCAUGUACAAGCUUUUUGCUCGUCUUAUUG [JL-shm-2.09 JL Mod] (puzzle: Sensor for hsa-mir-208a) | – | – | – | 307 nM | 14.9 nM | 285 nM |
| GGUCCAUCAUGAGGAUAUGGCACCUUAUUGGUGCCAGAAGGCAUGUAAAUUAUAAUAACAUGAGGAUCACCCAUGUAUUGGACC [Eli NG1ss - 95] (Eterna round: R96, puzzle: Same State NG 1) | 44.6 nM | 218 nM | 492 nM | – | – | – |
| GGUCGGACUCACAUGAGGAUCACCCAUGUUGCGGAAACGCAGCAGGAUAUCUGUCCGAAAAGGUCAGAGAAGGGCUAACCGACC [Fiskers NG3ss - 57] (Eterna round: R96, puzzle: Same State NG 3) | 197 nM | 596 nM | 1310 nM | – | – | – |
| GGUCGGACUCACAUGAGGAUCACCCAUGUUGCGGAAACGCGGCAGGAUAUCUGUCCGAAAAGGUCAGAGAAGGGCUAACCGACC [Fiskers NG3ss - 56] (Eterna round: R96, puzzle: Same State NG 3) | 52.2 nM | 254 nM | 343 nM | – | – | – |
| GGUGCUGUCACAGGAUAUCAUGCGGAAAUCGCGUGAGAAGGGUGGACUCUGUCAUUCACGGAGGACAUGAGGAUCACCCAUGUG [SS NG10LRO20] (Eterna round: R96, puzzle: Same State NG 1) | 68.5 nM | 5.67 nM | 20.2 nM | – | – | – |
| GGUGGGUUACUACCAACACAUGAGGAUCACCCAUGUUUUGGGAAGGAUAUGGUACCUAUUUGGUACCAGAAGGUCCAGUUAGUG [salish99_SSNG3_r04_703] (Eterna round: R96, puzzle: Same State NG 3) | 61.9 nM | 37.7 nM | 40 nM | – | – | – |
| GGUGGGUUGCUACCGACACAUGAGGAUCACCCAUGUUUUGGGAAGGAUAUGGUACCUAUUUGGUACCAGAAGGUCCCGUUGGUG [salish99_SSNG3_r04_707] (Eterna round: R96, puzzle: Same State NG 3) | 136 nM | 136 nM | 133 nM | – | – | – |
